Results published in article PMC8604303.

Experiments:
[1] = molecular target: C9 TMH-1 lock mutant (C9_(TMH-1 lock), F262C V405C) (human) (UniProt P02748)
[2] = molecular target: C9 TMH-1 lock mutant (C9_(TMH-1 lock), F262C V405C) (human) (UniProt P02748); assay: SDS-PAGE of SDS-stable polymeric-C9, in-gel Cy5 fluorescence; as a3 but 20 nM Cy5-labelled C9 incubated with the C5b-8 labelled bacteria in 10 mM DTT
[3] = molecular target: C5b-8 (MAC precursor of C5b, C6, C7 and C8) assembled on E. coli (human) (UniProt P01031); assay: flow cytometry on cells; as a1 but Cy5-labelled C9 added with 10 mM DTT (the methods give 20 nM C8 added 15 min before C9 at RT)
[4] = molecular target: C9 TMH-1 lock mutant (C9_(TMH-1 lock), F262C V405C) (human) (UniProt P02748); remark: listed apart in the source
[5] = molecular target: C5b-8 (MAC precursor of C5b, C6, C7 and C8) assembled on E. coli (human) (UniProt P01031); assay: flow cytometry on cells; complement-sensitive E. coli (MG1655, BW25113, MC1061, 547563.1, CGSC7740 wildtype) in 3% C9-depleted serum with 25 nM Cy5-labelled C9 for 30 min at 37 C; Syto9 trigger; MFI
[6] = molecular target: C5b-8 (MAC precursor of C5b, C6, C7 and C8) assembled on E. coli (human) (UniProt P01031); assay: flow cytometry on cells; complement-resistant E. coli that express LPS O-Ag (552059.1, 552060.1, 567705.1, CGSC7740 wbbL+) in 3% C9-depleted serum with 25 nM Cy5-labelled C9 (up to 10-fold more on 552059.1) for 30 min at 37 C; MFI
[7] = molecular target: C5b-8 (MAC precursor of C5b, C6, C7 and C8) assembled on E. coli (human) (UniProt P01031); assay: flow cytometry on cells; E. coli MG1655 labelled with C5b-7 (10% C8-depleted serum, 30 min), washed, 10 nM C8 for 15 min, then 20 nM Cy5-labelled C9 for 30 min, no DTT; RPMI + 0.05% HSA; geoMFI
[8] = molecular target: C5b-8 (MAC precursor of C5b, C6, C7 and C8) assembled on E. coli (human) (UniProt P01031); assay: flow cytometry on cells; E. coli MG1655 labelled with C5b-7, washed, 10 nM C8 and a concentration range of Cy5-labelled C9 for 30 min; geoMFI

wildtype C9 (C9wt), sequence (P02748 22-559): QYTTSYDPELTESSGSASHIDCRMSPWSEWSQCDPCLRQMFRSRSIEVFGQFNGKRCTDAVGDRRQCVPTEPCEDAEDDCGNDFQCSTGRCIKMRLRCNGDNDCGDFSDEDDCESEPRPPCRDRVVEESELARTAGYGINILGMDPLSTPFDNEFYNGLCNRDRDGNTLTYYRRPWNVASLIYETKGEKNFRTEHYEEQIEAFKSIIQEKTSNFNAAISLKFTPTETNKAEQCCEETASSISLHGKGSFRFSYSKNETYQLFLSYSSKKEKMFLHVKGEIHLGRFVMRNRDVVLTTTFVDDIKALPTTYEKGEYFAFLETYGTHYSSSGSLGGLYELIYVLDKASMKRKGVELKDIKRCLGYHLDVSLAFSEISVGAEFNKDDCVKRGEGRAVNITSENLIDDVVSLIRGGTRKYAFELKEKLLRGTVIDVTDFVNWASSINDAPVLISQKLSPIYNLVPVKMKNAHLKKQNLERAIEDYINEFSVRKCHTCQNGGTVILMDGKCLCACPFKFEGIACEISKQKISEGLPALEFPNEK

Row | Substance | bacterial viability (CFU) of E. coli MG1655 in 3% C9-depleted serum with 25 nM C9 after 30 min, against C9wt [1] | outer membrane damage (DiOC2) and inner membrane damage (Sytox) of E. coli MG1655 in 3% C9-depleted serum with 25 nM C9, delay against C9wt [1] | fold lower polymeric-C9 detection against C9wt with DTT [2] | fold binding with DTT against C9 (TMH-1 lock) without DTT [3] | fold lower binding against C9wt with DTT [3] | bacterial viability (CFU) of C5b-8 labelled E. coli MG1655 with 100 nM C9, decrease compared to C5b-8 alone [4] | fold binding against C9 (TMH-1 lock) [5] | fold binding against C9 (TMH-1 lock), on CGSC7740 wildtype [5] | fold binding against C9 (TMH-1 lock), on 552059.1 with up to 10-fold more C9 [6] | fold binding against C9 (TMH-1 lock), on CGSC7740 wbbL+ [6] | fold binding against C9 (TMH-1 lock) [7] | fold binding against C9 (TMH-1 lock) [8]
1 | C9 TMH-1 lock mutant (C9_(TMH-1 lock), F262C V405C) (from UniProt P02748 22-559) (natural protein) | 1000 fold | 30 min | 2 to 3 fold | 3 fold | 2 to 3 fold | 10 fold |  |  |  |  |  | 
2 | wildtype C9 (C9wt) (from UniProt P02748 22-559) (natural protein) |  |  |  |  |  |  | 5 to 15 fold | 12 fold | 2 to 3 fold | 2.5 fold | 10 fold | < 10 fold
